Among the data in article PMC6412583 are fold β-Gal activity against GmHD-ZIP III-2::ZPR3b and GmHD-ZIP III-2::ZPR3c and fold β-Gal activity against any of the experimental pairs values, retold here.

Test [1] has as its target GmZPR3d (soybean (Glycine max)). Briefly: two-hybrid; quantitative β-gal assay of mated yeast cells with ONPG as substrate, Miller's units from OD420, in triplicate; product in test samples almost 20 h after substrate addition.
Test [2] has as its target T (control protein of the yeast two-hybrid kit, pGBKT7-T as printed). The description is as above.

In test [1], GmHD-ZIP III-2 (natural protein) displayed a fold β-Gal activity against GmHD-ZIP III-2::ZPR3b and GmHD-ZIP III-2::ZPR3c of 7 fold. The substance “53 (positive control protein of the yeast two-hybrid kit, pGADT7-53 as printed) (domain or fragment)” displayed a fold β-Gal activity against any of the experimental pairs in test [2] of 14 fold.
